Results from article PMC7954791, “MAGIs regulate aPKC to enable balanced distribution of intercellular tension for epithelial sheet homeostasis” (Communications Biology, 2021).

Molecular target: T1, ankyrin-repeat-, SH3-domain- and proline-rich-region-containing protein 2 (ASPP2), FLAG-tagged (UniProt Q8CG79 1-1128)
T1 construct: ASPP2, FLAG-tagged, co-expressed with HA-MAGI-3 in a heterologous expression system; HEK293 is probably the host; also called FLAG-ASPP2; source: heterologous expression system, in lysate
T1 sequence (looked up): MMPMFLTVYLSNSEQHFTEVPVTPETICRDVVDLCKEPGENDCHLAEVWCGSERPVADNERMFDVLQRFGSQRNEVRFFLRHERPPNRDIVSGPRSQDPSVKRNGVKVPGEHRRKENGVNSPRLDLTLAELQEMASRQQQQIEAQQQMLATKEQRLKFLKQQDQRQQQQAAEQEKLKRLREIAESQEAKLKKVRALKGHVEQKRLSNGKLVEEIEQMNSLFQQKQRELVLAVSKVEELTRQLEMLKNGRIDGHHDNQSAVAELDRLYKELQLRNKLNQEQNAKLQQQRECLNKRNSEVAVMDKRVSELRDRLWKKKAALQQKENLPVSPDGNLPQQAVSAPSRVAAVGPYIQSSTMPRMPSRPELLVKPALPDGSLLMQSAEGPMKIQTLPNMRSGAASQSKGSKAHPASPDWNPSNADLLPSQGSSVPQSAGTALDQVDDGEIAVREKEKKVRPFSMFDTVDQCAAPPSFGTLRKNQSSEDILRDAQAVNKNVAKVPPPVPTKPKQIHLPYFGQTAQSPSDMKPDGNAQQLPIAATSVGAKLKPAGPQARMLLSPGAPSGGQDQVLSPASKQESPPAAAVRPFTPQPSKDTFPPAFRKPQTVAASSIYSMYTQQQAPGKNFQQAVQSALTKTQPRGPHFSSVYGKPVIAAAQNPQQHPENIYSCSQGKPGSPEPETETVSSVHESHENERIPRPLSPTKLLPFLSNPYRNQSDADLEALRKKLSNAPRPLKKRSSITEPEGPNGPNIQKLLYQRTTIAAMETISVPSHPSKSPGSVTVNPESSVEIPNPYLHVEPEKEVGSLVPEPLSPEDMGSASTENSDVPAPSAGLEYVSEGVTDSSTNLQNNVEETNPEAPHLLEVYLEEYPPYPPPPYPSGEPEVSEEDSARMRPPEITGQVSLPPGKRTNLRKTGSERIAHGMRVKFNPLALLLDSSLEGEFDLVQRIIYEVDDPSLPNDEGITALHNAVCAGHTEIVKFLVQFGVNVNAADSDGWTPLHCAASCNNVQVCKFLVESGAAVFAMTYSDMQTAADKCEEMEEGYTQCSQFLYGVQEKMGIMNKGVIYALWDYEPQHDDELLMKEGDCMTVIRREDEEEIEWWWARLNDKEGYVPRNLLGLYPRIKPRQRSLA
Assay: co-IP; FLAG immunoprecipitation in a heterologous expression system; FLAG-ASPP2 and HA-MAGI-3 co-expressed with GFP-RASSF10; 20 mM Tris-HCl pH 7.5, 150 mM NaCl, 1% Triton X-100; blot quantified, normalised to GFP control
Conditions: partners not purified

fold co-precipitation with GFP-RASSF10 co-expressed, over GFP alone: ~4 fold
B1: MAGI-3 (natural protein, UniProt Q9EQJ9 1-1476, looked up)
chain: MSKTLKKKKHWLSKVQECAVSWAGPPGDLGAEIRGGAERGEFPYLGRLRDEAGGGGGTCCVVSGKAPSPGDVLLEVNGTPVSGLTNRDTLAVIRHFREPIRLKTVKPGKVINKDLRHYLSLQFQKGSIDHKLQQVIRDNLYLRTIPCTTRAPRDGEVPGVDYNFISVEQFKALEESGALLESGTYDGNFYGTPKPPAEPSPFQPDPVDQVLFDNEFDTESQRKRTTSVSKMERMDSSLPEEEEDEDKEAVNGSGSMETREMHSETSDCWMKTVPSYNQTNSSMDFRNYMMRDENLEPLPKNWEMAYTDTGMIYFIDHNTKTTTWLDPRLCKKAKAPEDCEDGELPYGWEKIEDPQYGTYYVDHLNQKTQFENPVEEAKRKKQLGQAEIHSAKTDVERAHFTRDPSQLKGVLVRASLKKSTMGFGFTIIGGDRPDEFLQVKNVLKDGPAAQDGKIAPGDVIVDINGNCVLGHTHADVVQMFQLVPVNQYVNLTLCRGYPLPDDSEDPVVDIVAATPVINGQSLTKGETCMNTQDFKLGAMVLDQNGKSGQILASDRLNGPSESSEQRASLASSGSSQPELVTIPLIKGPKGFGFAIADSPTGQKVKMILDSQWCQGLQKGDIIKEIYHQNVQNLTHLQVVEVLKQFPVGADVPLLILRGGPCSPTKTAKTKTDTKENSGSLETINEPIPQPMPFPPSIIRSGSPKLDPSEVYLKSKTLYEDKPPNTKDLDVFLRKQESGFGFRVLGGDGPDQSIYIGAIIPLGAAEKDGRLRAADELMCIDGIPVKGKSHKQVLDLMTTAARNGHVLLTVRRKIFYGEKQPEDESHQAFSQNGSPRLNRAELPTRSAPQEAYDVTLQRKENEGFGFVILTSKSKPPPGVIPHKIGRVIDGSPADRCGGLKVGDHISAVNGQSIVDLSHDNIVQLIKDAGVTVTLTVVAEEEHHGPPSGTNSARQSPALQHRPMGQAQANHIPGDRIALEGEIGRDVCSSYRHSWSDHKHLAQPDTAVISVVGSRHNQSLGCYPVELERGPRGFGFSLRGGKEYNMGLFILRLAEDGPAIKDGRIHVGDQIVEINGEPTQGITHTRAIELIQAGGNKVLLLLRPGTGLIPDHGDWDTNSPSSSNVIYDEQPPPLPSSHSASTFEESHVPATEDSLTRVQICEKAEELKDTVQEKKSTLNGSQPEMKYQSVHKTMSKKDPPRGSGHGEKSRLKGENGVTRRGRSASPKKSVNRHSEEHLEKIPRPLKSDPKEKSRDRSLSPRKGESKGRLTIKAGSGQDPYRKDRGRSSSPKKQQKIGGNSLSNTEGKLSEAGSRRAAGHPRDSTEQLPDGREKSGVSRKDLKQSQPGKTRTKSPEKKSSKVDETSLPSKKTSSTAGRVVSEKEKGKKPTAGETSRETVEHTQISAKQLKQEAQEKTALGNADDHKGRESEVTDRCRERAGCTPQSSSLVKKAPITPGPWRVPRANKVTGTTGMADKQL
notes: MAGI-3, expressed in a heterologous expression system for FLAG immunoprecipitation; HEK293 is probably the host; also called HA-MAGI-3; MAGI proteins; source: heterologous expression system, in lysate
